Laboratory results taken from patent US20220119534A1 (DRAGONFLY THERAPEUTICS, published 2022).
“And” between values parts separate entries of the source, which are not always exact repeats. Identical values can stand only once.

Key:
mFc-hNKG2D [1] = molecular target: T1, mFc-hNKG2D (human, UniProt P26718 73-216); experiment: SPR Biacore 8K 37 C; mFc-hNKG2D captured on anti-mFc chip, TriNKET as analyte; 1:1 kinetic fit; after low pH hold, n=3
T1 construct: extracellular domain; Made in house (Dragonfly Tx); the order of tag and ECD follows the name mFc-hNKG2D; also called mFc-tagged human NKG2D; not shown: mouse Fc tag
T1 sequence (looked up): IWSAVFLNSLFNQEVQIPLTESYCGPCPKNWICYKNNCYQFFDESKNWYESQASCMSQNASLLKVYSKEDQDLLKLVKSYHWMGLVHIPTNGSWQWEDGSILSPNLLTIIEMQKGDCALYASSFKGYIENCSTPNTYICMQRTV

Human CLEC12A-His [2] = molecular target: T2, Human CLEC12A-His (human, UniProt Q5QGZ9 65-265); experiment: SPR Biacore 8K 37 C; TriNKET captured on anti-hFc chip, hCLEC12A-His as analyte; 1:1 fit; control sample, n=2
T2 construct: Recombinant soluble protein made in house (Dragonfly Tx); The hCLEC12A spot of the HuProt array is written under this molecule as well; also called hCLEC12A-His; hCLEC12A; not shown: His tag
T2 sequence: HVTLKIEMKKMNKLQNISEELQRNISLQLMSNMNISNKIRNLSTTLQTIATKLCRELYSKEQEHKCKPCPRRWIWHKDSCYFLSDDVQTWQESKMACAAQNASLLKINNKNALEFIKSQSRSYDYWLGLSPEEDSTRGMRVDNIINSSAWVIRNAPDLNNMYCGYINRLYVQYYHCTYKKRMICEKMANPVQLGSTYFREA

Human CLEC12A-His [3] = molecular target: T2, Human CLEC12A-His; experiment: SPR Biacore 8K 37 C; TriNKET captured on anti-hFc chip, hCLEC12A-His as analyte; 1:1 fit; after 2 wks 25 C in CST pH 7.0, n=2
Method: Briefly, human Fc specific antibodies were covalently immobilized at a density ˜8000-10000 resonance units (RU) on carboxy methyl dextran matrix of a CM5 biosensor chip via amine-coupling chemistry to create an anti-hFc IgG chip. […] Association was monitored for 300 seconds and dissociation was monitored for 600 seconds. Surfaces were regenerated between cycles with three pulses of 10 mM glycine-HCl, pH 1.7 injected for 20 seconds at 100 μL/min. HBS-EP+ (1×) with 0.1 mg/mL BSA buffer was used throughout the experiment. Data were analyzed using Biacore 8K Insight evaluation software (GE Healthcare). The kinetic rate constants and overall affinity were obtained using 1:1 kinetic fit binding model (FIGS. 71A-71B).

mFc-hNKG2D [4] = molecular target: T1, mFc-hNKG2D; experiment: SPR Biacore 8K 37 C; mFc-hNKG2D captured on anti-mFc chip, TriNKET as analyte; steady state fit; control, n=3
mFc-hNKG2D [5] = molecular target: T3, mFc-hNKG2D (human, UniProt P26718 73-216); experiment: SPR, 37 C, mFc-hNKG2D captured, 1:1 kinetic fit; average
T3 construct: extracellular domain; Recombinant mFc-tagged NKG2D dimer, made in house; also called human NKG2D; not shown: mouse Fc tag
T3 sequence (looked up): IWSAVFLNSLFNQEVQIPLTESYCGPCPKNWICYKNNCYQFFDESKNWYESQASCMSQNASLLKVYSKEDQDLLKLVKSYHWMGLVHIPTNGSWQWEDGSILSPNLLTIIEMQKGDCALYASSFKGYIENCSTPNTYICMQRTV

Human CD64 = molecular target: T4, Human CD64 (human, UniProt P12314 16-288, biotinylated); experiment: SPR, human CD64 captured
T4 construct: Bought recombinant receptor; also called hFcγRI; Human CD64 (FcγRI)

Cynomolgus CD64 = molecular target: T5, Cynomolgus CD64 (cynomolgus monkey, UniProt A0A2K5U901 33-309, Probably biotinylated for capture, as in the sister examples (p-1094).); experiment: SPR, cynomolgus CD64 captured; average for AB0192
T5 construct: Bought recombinant receptor; also called cFcγRI; Cynomolgus CD64 (FcγRI); not shown: The vendor's biotinylation and purification tag

Human CD32b = molecular target: T6, Human CD32b (human, UniProt P31994 46-217, limits assumed, biotinylated); experiment: SPR, steady state fit
T6 construct: Bought recombinant receptor; also called hFcγRIIb
T6 sequence (looked up): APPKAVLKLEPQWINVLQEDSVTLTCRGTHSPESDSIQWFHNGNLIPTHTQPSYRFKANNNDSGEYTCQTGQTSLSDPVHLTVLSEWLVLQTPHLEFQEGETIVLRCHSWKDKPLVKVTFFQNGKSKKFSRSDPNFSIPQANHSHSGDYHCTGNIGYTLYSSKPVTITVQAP

[6] = molecular target: T7, recombinant human CLEC12A-His (human, UniProt Q5QGZ9 65-265); experiment: SPR 37C, TriNKET captured on anti-hFc
T7 construct: also called hCLEC12A-His; hCLEC12A
T7 sequence: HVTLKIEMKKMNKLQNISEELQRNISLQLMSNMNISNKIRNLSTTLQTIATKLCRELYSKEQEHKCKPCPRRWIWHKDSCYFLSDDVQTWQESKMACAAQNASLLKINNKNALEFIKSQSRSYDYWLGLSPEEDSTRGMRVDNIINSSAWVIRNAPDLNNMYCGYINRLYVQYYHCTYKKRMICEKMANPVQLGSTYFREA
Method: Briefly, human Fc specific antibodies were covalently immobilized at a density of about 8000-10000 resonance units (RU) on carboxy methyl dextran matrix of a CM5 biosensor chip to create an anti-hFc IgG chip. […] Association was monitored for 300 seconds, and dissociation was monitored for 900 seconds. Surfaces were regenerated between cycles with three pulses of 10 mM glycine-HCl (pH 1.7) injected for 20 seconds at 100 μL/min.

[7] = molecular target: T7, recombinant human CLEC12A-His; experiment: SPR 37C

T5 sequence (A0A2K5U901 entry or part of it limits assumed): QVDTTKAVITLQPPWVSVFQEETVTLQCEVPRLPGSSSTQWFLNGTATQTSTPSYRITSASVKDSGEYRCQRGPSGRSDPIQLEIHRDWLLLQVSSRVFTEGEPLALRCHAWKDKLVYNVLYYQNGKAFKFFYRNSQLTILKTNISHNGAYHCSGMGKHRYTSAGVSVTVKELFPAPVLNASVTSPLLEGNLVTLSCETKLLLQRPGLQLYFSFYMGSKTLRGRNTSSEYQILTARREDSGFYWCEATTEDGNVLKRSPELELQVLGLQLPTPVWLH
T4 sequence (P12314 16-288 limits assumed): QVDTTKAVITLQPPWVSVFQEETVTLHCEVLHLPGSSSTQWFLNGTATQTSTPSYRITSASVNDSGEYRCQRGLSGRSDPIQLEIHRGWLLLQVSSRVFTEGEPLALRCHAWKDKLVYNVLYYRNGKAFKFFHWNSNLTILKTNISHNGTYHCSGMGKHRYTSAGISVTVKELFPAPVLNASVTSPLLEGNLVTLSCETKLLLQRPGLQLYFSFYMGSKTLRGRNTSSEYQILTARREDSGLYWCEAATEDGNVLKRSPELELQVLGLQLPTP

B1: F3'-1602 TriNKET (bispecific antibody, human IgG1, kappa)
chain: QLQLQESGPGLVKPSETLSLTCTVSGFSLTNYGLHWIRQPPGKCLEWIGVIWSGGKTDYNPSLKSRVTISKDTSKNQFSLKLSSVQAADTAVYYCAKYDYDDSLDYWGQGTLVTVSSGGGGSGGGGSGGGGSGGGGSDIQMTQSPSSLSASVGDRVTITCHASQNINFWLSWYQQKPGKAPKLLIYEASNLHTGVPSRFSGSGSGTRFTLTISSLQPEDIATYYCQQSHSYPLTFGCGTKLEIKGSDKTHTCPPCPAPELLGGPSVFLFPPKPKDTLMISRTPEVTCVVVDVSHEDPEVKFNWYVDGVEVHNAKTKPREEQYNSTYRVVSVLTVLHQDWLNGKEYKCKVSNKALPAPIEKTISKAKGQPREPRVYTLPPCRDELTKNQVSLTCLVKGFYPSDIAVEWESNGQPENNYKTTPPVLVSDGSFTLYSKLTVDKSRWQQGNVFSCSVMHEALHNHYTQKSLSLSPG
heavy: EVQLVESGGGLVKPGGSLRLSCAASGFTFSSYSMNWVRQAPGKGLEWVSSISSSSSYIYYADSVKGRFTISRDNAKNSLYLQMNSLRAEDTAVYYCARGAPIGAAAGWFDPWGQGTLVTVSSASTKGPSVFPLAPSSKSTSGGTAALGCLVKDYFPEPVTVSWNSGALTSGVHTFPAVLQSSGLYSLSSVVTVPSSSLGTQTYICNVNHKPSNTKVDKKVEPKSCDKTHTCPPCPAPELLGGPSVFLFPPKPKDTLMISRTPEVTCVVVDVSHEDPEVKFNWYVDGVEVHNAKTKPREEQYNSTYRVVSVLTVLHQDWLNGKEYKCKVSNKALPAPIEKTISKAKGQPREPQVCTLPPSRDELTENQVSLTCLVKGFYPSDIAVEWESNGQPENNYKTTPPVLDSDGSFFLYSWLTVDKSRWQQGNVFSCSVMHEALHNHYTQKSLSLSPG
light: DIQMTQSPSSVSASVGDRVTITCRASQGISSWLAWYQQKPGKAPKLLIYAASSLQSGVPSRFSGSGSGTDFTLTISSLQPEDFATYYCQQGVSFPRTFGGGTKVEIKRTVAAPSVFIFPPSDEQLKSGTASVVCLLNNFYPREAKVQWKVDNALQSGNSQESVTEQDSKDSTYSLSSTLTLSKADYEKHKVYACEVTHQGLSSPVTKSFNRGEC
notes: Trispecific F3' format: CLEC12A scFv-Fc paired with NKG2D Fab-Fc; Stressed and control samples of the stability studies are the same molecule; also called AB0237
Binder B1 has a Kd (mFc-hNKG2D [1]) of 671 nM, a koff (mFc-hNKG2D [1]) of 0.139 s⁻¹ and a kon (mFc-hNKG2D [1]) of 207000 M⁻¹ s⁻¹. It also gave a Kd (Human CLEC12A-His [2]) of 0.98 nM, a koff (Human CLEC12A-His [2]) of 0.000735 s⁻¹ and a kon (Human CLEC12A-His [2]) of 750000 M⁻¹ s⁻¹. It also gave a Kd (Human CLEC12A-His [3]) of 0.93 nM, a koff (Human CLEC12A-His [3]) of 0.000765 s⁻¹ and a kon (Human CLEC12A-His [3]) of 824000 M⁻¹ s⁻¹. The Kd (mFc-hNKG2D [4]) was 710 nM.

B2: AB0192 TriNKET (other)
chain: EVQLVESGGGVVQPGGSLRLSCAASGFTFNAFGMHWVRQAPGKCLEWVAFISSGSTSIYYANTVKGRFTISRDNSKNTLYLQMNSLRAEDTAVYYCARDGYPTGGAMDYWGQGTSVTVSSGGGGSGGGGSGGGGSGGGGSDIQMTQSPSSLSASVGDRVTITCKASQDIYNYLSWFQQKPGKAPKPLIYRANILVSGVPSRFSGSGSGQDYTFTISSLQPEDIATYYCLQFDAFPFTFGCGTKLEIKGSDKTHTCPPCPAPELLGGPSVFLFPPKPKDTLMISRTPEVTCVVVDVSHEDPEVKFNWYVDGVEVHNAKTKPREEQYNSTYRVVSVLTVLHQDWLNGKEYKCKVSNKALPAPIEKTISKAKGQPREPRVYTLPPCRDELTKNQVSLTCLVKGFYPSDIAVEWESNGQPENNYKTTPPVLVSDGSFTLYSKLTVDKSRWQQGNVFSCSVMHEALHNHYTQKSLSLSPG
heavy: EVQLVESGGGLVKPGGSLRLSCAASGFTFSSYSMNWVRQAPGKGLEWVSSISSSSSYIYYADSVKGRFTISRDNAKNSLYLQMNSLRAEDTAVYYCARGAPIGAAAGWFDPWGQGTLVTVSSASTKGPSVFPLAPSSKSTSGGTAALGCLVKDYFPEPVTVSWNSGALTSGVHTFPAVLQSSGLYSLSSVVTVPSSSLGTQTYICNVNHKPSNTKVDKKVEPKSCDKTHTCPPCPAPELLGGPSVFLFPPKPKDTLMISRTPEVTCVVVDVSHEDPEVKFNWYVDGVEVHNAKTKPREEQYNSTYRVVSVLTVLHQDWLNGKEYKCKVSNKALPAPIEKTISKAKGQPREPQVCTLPPSRDELTENQVSLTCLVKGFYPSDIAVEWESNGQPENNYKTTPPVLDSDGSFFLYSWLTVDKSRWQQGNVFSCSVMHEALHNHYTQKSLSLSPG
light: DIQMTQSPSSVSASVGDRVTITCRASQGISSWLAWYQQKPGKAPKLLIYAASSLQSGVPSRFSGSGSGTDFTLTISSLQPEDFATYYCQQGVSFPRTFGGGTKVEIKRTVAAPSVFIFPPSDEQLKSGTASVVCLLNNFYPREAKVQWKVDNALQSGNSQESVTEQDSKDSTYSLSSTLTLSKADYEKHKVYACEVTHQGLSSPVTKSFNRGEC
notes: the condition stands under assay; also called AB0192 Lot AB0192-005
B2 was tested, and the koff (mFc-hNKG2D [5]) was 0.146 s⁻¹, the kon (mFc-hNKG2D [5]) was 188000 M⁻¹ s⁻¹ and the Kd (Human CD64) was 6.1 nM and 5.5 nM and 3.5 nM. For the same binder, the koff (Human CD64) was 0.00029 s⁻¹ and 0.00026 s⁻¹ and 0.00018 s⁻¹, the kon (Human CD64) was 47000 M⁻¹ s⁻¹ and 52000 M⁻¹ s⁻¹ and the Kd (Cynomolgus CD64) was 1.9 nM. For the same binder, the koff (Cynomolgus CD64) was 0.00012 s⁻¹, the kon (Cynomolgus CD64) was 62000 M⁻¹ s⁻¹ and the Kd (Human CD32b) was 6500 nM and 5600 nM and 5200 nM and 7000 nM.

B3: F3'-1602 TriNKET (other)
chain: QLQLQESGPGLVKPSETLSLTCTVSGFSLTNYGLHWIRQPPGKCLEWIGVIWSGGKTDYNPSLKSRVTISKDTSKNQFSLKLSSVQAADTAVYYCAKYDYDDSLDYWGQGTLVTVSSGGGGSGGGGSGGGGSGGGGSDIQMTQSPSSLSASVGDRVTITCHASQNINFWLSWYQQKPGKAPKLLIYEASNLHTGVPSRFSGSGSGTRFTLTISSLQPEDIATYYCQQSHSYPLTFGCGTKLEIKGSDKTHTCPPCPAPELLGGPSVFLFPPKPKDTLMISRTPEVTCVVVDVSHEDPEVKFNWYVDGVEVHNAKTKPREEQYNSTYRVVSVLTVLHQDWLNGKEYKCKVSNKALPAPIEKTISKAKGQPREPRVYTLPPCRDELTKNQVSLTCLVKGFYPSDIAVEWESNGQPENNYKTTPPVLVSDGSFTLYSKLTVDKSRWQQGNVFSCSVMHEALHNHYTQKSLSLSPG
heavy: EVQLVESGGGLVKPGGSLRLSCAASGFTFSSYSMNWVRQAPGKGLEWVSSISSSSSYIYYADSVKGRFTISRDNAKNSLYLQMNSLRAEDTAVYYCARGAPIGAAAGWFDPWGQGTLVTVSSASTKGPSVFPLAPSSKSTSGGTAALGCLVKDYFPEPVTVSWNSGALTSGVHTFPAVLQSSGLYSLSSVVTVPSSSLGTQTYICNVNHKPSNTKVDKKVEPKSCDKTHTCPPCPAPELLGGPSVFLFPPKPKDTLMISRTPEVTCVVVDVSHEDPEVKFNWYVDGVEVHNAKTKPREEQYNSTYRVVSVLTVLHQDWLNGKEYKCKVSNKALPAPIEKTISKAKGQPREPQVCTLPPSRDELTENQVSLTCLVKGFYPSDIAVEWESNGQPENNYKTTPPVLDSDGSFFLYSWLTVDKSRWQQGNVFSCSVMHEALHNHYTQKSLSLSPG
light: DIQMTQSPSSVSASVGDRVTITCRASQGISSWLAWYQQKPGKAPKLLIYAASSLQSGVPSRFSGSGSGTDFTLTISSLQPEDFATYYCQQGVSFPRTFGGGTKVEIKRTVAAPSVFIFPPSDEQLKSGTASVVCLLNNFYPREAKVQWKVDNALQSGNSQESVTEQDSKDSTYSLSSTLTLSKADYEKHKVYACEVTHQGLSSPVTKSFNRGEC
notes: CLEC12A scFv-Fc, NKG2D A49MI Fab-Fc, human IgG1 Fc; also called AB0237
B3 was tested, and the Kd [6] was 0.58 nM and 0.59 nM and 0.57 nM and 0.6 nM, the koff [6] was 0.000494 s⁻¹ and 0.000489 s⁻¹ and 0.000499 s⁻¹ and the kon [6] was 854000 M⁻¹ s⁻¹ and 833000 M⁻¹ s⁻¹ and 863000 M⁻¹ s⁻¹ and 826000 M⁻¹ s⁻¹. For the same binder, the “fold lower KD than F3'-1295” value [7] was roughly 2 fold.
